Experimental data reported in the nanobody polyreactivity screen of Harvey et al. (2022).

Experiment: yeast display, Sf9 membrane polyspecificity reagent, FACS + sequencing; frameworks hold sequencing errors
In short: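 In a synthetic yeast display library (Saccharomyces cerevisiae BJ5465), nanobody expression was induced with galactose for 36–48 hours. FACS gates were set low and high (top ~1%) using anti-HA fluorescence for expression and streptavidin fluorescence for binding of the Sf9 membrane reagent. Each polyreactivity label is drawn from the gate of origin.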
For “QVQLVESGGGLVQAGGSLRLSCAASGRIFKDYAMGWYRQAPGKEREFVARISSRGGRTYYADSVKGRFTISRDNAKNTVYLQMNSLKPEDTAVYYCAVTTSPYRPTKFDYWGQGTQVTVSS”, the “polyreactivity (PSR sort gate)” value was “high polyreactivity”.
In the case of “QVQLVESVGGLVQAGGTLSLSCAASGFTFRNYAMGWYRQAPRKEREFVAAISRRGGSTYYADSVKGRITISRDNAKNTVYLQINSLKPEDSAVYYCATEPGKQNTYRMDYCGQGTQVTVSS”, the “polyreactivity (PSR sort gate)” value is reported as “high polyreactivity”.
In the case of “QVQLVESGGGLVQAGGSLRLSCAASGSTFFFNEMGWYRQAPGKEREVVAAITGRSGSTYYADSVKGRFTISRDNANNTDYLQMNSLKPEDNAVYYCAGDYSPWRSDFDYWGQGTQVTVSS”, the “polyreactivity (PSR sort gate)” value is reported as “low polyreactivity”.
For “QVQLVESGGGLVHAGGSLRLSCAASGFILTGNAMGWYRQAPGKERELVAAITSGGRTYYADSVKGRFTISRDNAKNTVYLQMNSLKPEETAVYYCAARRRWSQTPFDYWGQGTQVTVSS”, the “polyreactivity (PSR sort gate)” value was “high polyreactivity”.
With “QVQLVESGGGLGQAGGSLRLSCAASGSIFPYYAMGWYRPAPGTERELVASINQSDGTPYYADSVKGRFTISRDNAKNTVYLQMNSLKPEDTAVYYCAADTTLQAFIRYRPIGSYDSWGQGTQVTVSS” the “polyreactivity (PSR sort gate)” value was “low polyreactivity”.
In the case of “QVQLVESGGGLVHAGGSLRLSCAASGFTLHQYTMGWYRQAPGKERELVAAISDRGTRTYYADSVKGRFTISRDNAKNTVYLQMNSLKPEDPAVYYCAAYIAGVTGGSGYYYWGKGTQVTVSS”, the “polyreactivity (PSR sort gate)” value is reported as “high polyreactivity”.
For “QVQLVESGGGLVQAGGSLRLSCAASGRILSYYAMGWYRQAPGKERELVAVIRRGASTYADSVKGRFTISRDNAKNTVYLQMNSLKPEDTAVYYCNAERVVGLSATKYGYWGQGTQVTVSS”, the “polyreactivity (PSR sort gate)” value was “low polyreactivity”.
For “QVQLVESGGGLVQAGGSLRLSCAASGRTFPRNGMGWYRQAPGKERELVAAISWSGGRTYYADSVKGRFTISRDNAKNTVYLQMNSLKPEDTAVYYCNALYFRKAGYWGKGTQVTVSS”, the “polyreactivity (PSR sort gate)” value was “high polyreactivity”.
In the case of “QVKLVESGGGLVQAGGSLRLSCAASGSIFLGNAMGWYRQAPGKERELVATISSSDGSTDYADSVKGRFTISRDNAKNTVYLQMNSLKPEDTEVYYCNADYSYGTTLDYWGQGSQVTVSS”, the “polyreactivity (PSR sort gate)” value is reported as “low polyreactivity”.
For “QVQLVESGGGLVQAGGSLRLSCAASGSIFRLNAMGWYRQAPGKERELVARIDSSGSTNYADSVKGRFTISRDNAKNTVYLQMNSLKPEDTAVYYCAAGLVLIVGMDSWGQGTQVTVSS”, the “polyreactivity (PSR sort gate)” value was “low polyreactivity”.
In the case of “QVQLVESGGGLVQAGGSLRLSCAASGRTFSFYAMGWYRQAPGKERELVAGIDWDDGSTSYADSVKGRFTISRDNAKNTVYLQMNSLKPEDTAVYYCAAGPYAGVDPGDYYYWGQGTQVTVSS”, the “polyreactivity (PSR sort gate)” value is reported as “low polyreactivity”.
With “QVQLVESGGGLVQAGGSLRLSCAASGLIFFYYPMGWYRQAPGKEWEMVAAIRTNYADSVKGRFTISRDNAKNTVDLQMYSLKREDTADYYCAAESSQTPTSAFDYWGQGTQVTVSS” the “polyreactivity (PSR sort gate)” value was “low polyreactivity”.
With “QVQLVESGGGLVQAGGSLRLSSAASGSTFYYNSMGWYRQAPGKETELVAGITRGGSTNYADSVKGRFTISRDNAKNTVYLQMNSLKPEDSAVYYCAKRTYFRGSSGYYYWGQGTQVTVSS” the “polyreactivity (PSR sort gate)” value was “high polyreactivity”.
With “QVQLVESGGGLVQAGGSLRLSCAASGGTFRRYAMGWYRQAPGKERELVAAISWTGGSTYYADSVKGRFTISRDNAKNTVYLQMNSLKPEDTGVYYCAAVGSSSSKGGYWGQGTQVTVSS” the “polyreactivity (PSR sort gate)” value was “high polyreactivity”.
For “HFQLVESGGGLVQAGGSLRLSCAASGSSYSNYAMGWYRQAPGKEREMVAAISSSGSTYYADSVKGRFTISRDNAKNTVYLQLHRLKPEDTAVYYCAAGKDRRTSRYRYDSWGQGTQVTVSS”, the “polyreactivity (PSR sort gate)” value was “high polyreactivity”.
For “QVQLVESGGGLVQAGGSLRLSCAASGSTFAYYAMGWYRQAPGKERELVAGISGSGGSTYYADSVKGRFTISRDNAKNTVYLQLNSLKPEDTAVYYCAVVQRSKRTYPWYDYWGQGTQVTVSS”, the “polyreactivity (PSR sort gate)” value was “low polyreactivity”.
In the case of “QVQLVESGGGLVQAGGSLRLSCAASGSTIDPYGMGWYRQAPGKERELVAAITSSGRTNYADSVKGRFTISRDNAKNTVYLQMNSLKPEDTAVYYCNVQTYVELRLDYWGQGTQVTVSS”, the “polyreactivity (PSR sort gate)” value is reported as “low polyreactivity”.
With “QVQLVESGGGLVQAGGSLRLSCAASGRIFYAYAMGWYRQAPGKERELVARISYSGGNTYYADSVKGRFTISRDNAKNTVYLQMNSQKPEDTAVYYCNTDYRARFGYWGQGTQVTVSS” the “polyreactivity (PSR sort gate)” value was “high polyreactivity”.
In the case of “QVQLLESGGGLVQPGGSLRLSCAASGSIFGRNVMGWYRQAPGKERELVAAISSSGGRTYYADSVKGRFTISRDNAKNNVYLQMNCLKPEDTAVYYCADRYGIKYYYWGQGTQVTVSS”, the “polyreactivity (PSR sort gate)” value is reported as “high polyreactivity”.
With “QVQLVESGGGLVQAGGSLRISCAASGRTFSRYAMGWYRQAPGKERELVAAITRGGGGTYYADSVKGRFTISRDNAKNTVYLQMNSLKPEDTAVYYCNRVLLPGPQYQWGKAYDYWGQGTQVTVSS” the “polyreactivity (PSR sort gate)” value was “high polyreactivity”.
For “QVQLVESGGGLVQAGGSLRLSCAASGRTFQYNAMGWYRQAPGKERELVAAISWSGGSTYYADSVKGRFTISRDNAKNTVYLQMNSLKPEDTAVYYCNARTLFKWRHGHYYAYDYWGQGTQVTVSS”, the “polyreactivity (PSR sort gate)” value was “high polyreactivity”.
With “QVQLVESGGGLVQAGGSLRLSCAASGRTFAWYAMGWYRQAPGKERELVAVIRRGSGDTYYADSVKGRFTISRDNAKNTVYLQMNSLKPEDTAVYYCAAEGRFSFYGGGRPKYSRYDYWGQGTQVTVSS” the “polyreactivity (PSR sort gate)” value was “high polyreactivity”.
With “QVQLVESGGGLGQAGGSLRLSCAASGRIFPKYVMGWYRQAPGKERELVAAIDKSADRTYYADSVKGRFTISRDNAKNTVYLQMNSLKPEDTAVYYCATAGYRLLDYWGQGTQVTVSS” the “polyreactivity (PSR sort gate)” value was “high polyreactivity”.
With “QVQLVESGGGLVQAGGSLRLSFAASGIIFDINAMGWYRQAPGKERELVAAITTSVDSTYYADSVKGRFTISRDNAKNTVYLQMNSLKPEDTAVYYCAAGPGDSGDDYWGQGTQVTVSS” the “polyreactivity (PSR sort gate)” value was “low polyreactivity”.
In the case of “QVQLVESGGGLVQAGGSLRLSCAASGRIFYANAMGWYRQAPGKERELVASISARGGSTYYADSVKGRFTISRDNAKNTVYLQMNSLKPEDTAVYYCAKRDTFKPYASLYDYWGQGTQVTVSS”, the “polyreactivity (PSR sort gate)” value is reported as “high polyreactivity”.
With “QVQLVESGRGLVQAGGSLRLSCASSGFIFGPYAMGWYRQAPGKERELVAAISRRGGSTYYADSVKGRFTISRDNAKNTVYLQMNSLKPEDTAVYYCATRISQSYYNYGYWGQGTQGTVSS” the “polyreactivity (PSR sort gate)” value was “high polyreactivity”.
In the case of “QVQLVESGGGLVQAGGSLRLSCAASGSIIVWNAMGWYRQAPGKERELVAAITWSGVTTYYADSVKGRFTISRDNAKNTVYLQMNSLKPEDTAVYYCAAGRTRRKFDYWGQGTQVTVSS”, the “polyreactivity (PSR sort gate)” value is reported as “low polyreactivity”.
With “QVQLVESGGGLVQAGGSLRLSCAASGGIFSYYAMGWYRQAHGKERELVAAISGSGGRTYYADSVKGRFTISRDNAKNTVYLQMNSLKPEDTAVYYCAADSLSYSWEYYYWGQGTQVTVSS” the “polyreactivity (PSR sort gate)” value was “high polyreactivity”.
For “QVQLVESGGGLVQAVGSLRLSCAASGGIFTLYVMGWYRQAPGKERELVAAISRTGGSTYYADSVKGRFTISRDNAKNTVYLQMNSLKPEDTAVYYCAALYRGGTRYGGYDYWGQGTQVTVSS”, the “polyreactivity (PSR sort gate)” value was “low polyreactivity”.
For “QVQLVESGGGLVQAGGSLRLSCAASGSIFGSYAIGWYRHAPGKERELVAAIRYNSGSTYYADSVKGRFTISRDNAKNTVYLQMNSLKPEDTAVYYCAAYLLWGFDYWVQGTQVTVSS”, the “polyreactivity (PSR sort gate)” value was “high polyreactivity”.
With “QVQLVESGGGLVQAGGSLRLSCAASGFTLGFYAMGWYRQAPGKESELVAAINWRGGSTYYADSVKGRFTISRDNAKNTVYLQMNSLKPEDTAVYYCNARWARGRYAQYVGLDREYDYWGQGTQVTVSS” the “polyreactivity (PSR sort gate)” value was “high polyreactivity”.
With “QVQLVESGGGLVQAGGSLRLICAASGFTLDQYAMGWYRPAPGKERELVAVITSGGNTYYADSVKGRFTISRDNAKNTVYLQMNSLKPEDTAVYYCAKDVSDPFYDPFEYWGQGTQVTVSS” the “polyreactivity (PSR sort gate)” value was “low polyreactivity”.
With “QVQLVESGGGLVQAGGSLRLSCAASGATFTFYAMGWYRQAPGKERELVATINWSGGSTYYADSVKGRFTISRDNSKYTVYLQMNSMKPEDTAVFYCNAACPFKSVEYWGQGTQVTVSS” the “polyreactivity (PSR sort gate)” value was “low polyreactivity”.
In the case of “QVQLQESGGGLVQAGGSLRLSCAASGNIFSAGGMGWYRQAPVNERELVAGIGTGTSTNYADSVKGRFTISRDNAKNTVYLQMNSLKPEDTAVYYCAAAYYSGLSHWYWGQGTQVTVSS”, the “polyreactivity (PSR sort gate)” value is reported as “low polyreactivity”.
With “QVQLVESGGGLVQAGGSLRLSCAASGSILTDNAMRWYRQAPGKERELVAAITSGGYTYYADSVKGRFTISRDNAKNTVYLHMNILKPEDTAVYYCNADPYTYSYGMYYWGQGTQVTVSS” the “polyreactivity (PSR sort gate)” value was “low polyreactivity”.
In the case of “QVQLVESGGGLVQAGGSLRLSCAASGFIIEAYTMGWYRQAPGKERELVAAITWTGGSTYYADSVKGRFTISRDNAKNTVYLQMNSLKPEDTAVYYCNVPYYSFRELSSYYWGQGTQVTVSS”, the “polyreactivity (PSR sort gate)” value is reported as “high polyreactivity”.
In the case of “QLQIVESGGGLVQAGGSLRLTCAASGSTFPLYAMGWYSQAPGKEREFVAAIRWIGGSTYYADSVKGRFTISRDNAKNSVYLLMNSLKPEDTAVYYGAADYVVSAFDYWGQGTQVTVSS”, the “polyreactivity (PSR sort gate)” value is reported as “low polyreactivity”.
In the case of “QVQLVESGGGLVQAGGSLRLSCAASVSPFWLNAMGWYRPAPGKEREFVAAITVGGGSTYYADSVKGRFTISRDNAKNTDYLQMNSLKPEDTAVYYCAALYRFWYPGNSYDYWGQGTQVTVSS”, the “polyreactivity (PSR sort gate)” value is reported as “high polyreactivity”.
With “QVQLVESGGGLVQAGGSLRLSCAASGRTFGSYVMGWYRQAPGKERELVAAITTSGGRTYYADSVKGRFTISRDNAKNTVYLQMNSLKPEDTAVYYCAAVQLTPTTLYRYYSWGQGTQVTVSS” the “polyreactivity (PSR sort gate)” value was “high polyreactivity”.
With “QVQLVESGGGLVQAGGSLRLSCAASGRIFGLNAMGWYRQAPGKERELVAAIDRSGASTYYADSVKGRFTISRDNAKNTVYLQMNSLKPEDTAVYYCAAESYLSGEEYDYWGQGTQVTVSS” the “polyreactivity (PSR sort gate)” value was “high polyreactivity”.
With “QVQLVESGGGLVQAGGSLRLSCAASGSIFRFYTMGWYRQAPGKERELVAAIRYRGTSTYYADSVKGRFTISRDNAKNTVYLQMNSLKPEDTAVYYCATRNIYFSSVDYWGQGTQVTVSS” the “polyreactivity (PSR sort gate)” value was “high polyreactivity”.
In the case of “QVQLVESGGGLVQAGGSLGLTCAASGFILAQNAMGWYRQAPGKERELVAAISRRGGRTSYADSVKGRFTISRDYAKNTVYLQMNSLKPEDTAVYYCAALPPRASSDAGGWYVAEDYWGQGTQVTVSS”, the “polyreactivity (PSR sort gate)” value is reported as “high polyreactivity”.
In the case of “QVQLVESGVGLVQAGGSLRLSCASSGRTFPTYAMGWYRQAPGKERELVAAIRISGGRTYYADSVKGRFTISRDNAKNTVDLQMNSLKPEDTAVYYCAADTYASYESWGQGTQVSVSS”, the “polyreactivity (PSR sort gate)” value is reported as “high polyreactivity”.
